Numbering of substitutions follows the chain as printed. Names may count otherwise. Values belong to the binder of their own block, whether it stands above or below them.
Tests used:
[1] = biological target: human CD40 on cells (HEK293 stable transfectants, HEK-Blue CD40 cells, human B cells, monocytic cells, … (human, UniProt P25942 21-277)); test: cell-based or functional assay
[2] = biological target: T1, mouse CD40 (mouse, UniProt P27512 20-193, limits assumed); test: FACS
T1 construct: also called murine CD40
T1 sequence (looked up): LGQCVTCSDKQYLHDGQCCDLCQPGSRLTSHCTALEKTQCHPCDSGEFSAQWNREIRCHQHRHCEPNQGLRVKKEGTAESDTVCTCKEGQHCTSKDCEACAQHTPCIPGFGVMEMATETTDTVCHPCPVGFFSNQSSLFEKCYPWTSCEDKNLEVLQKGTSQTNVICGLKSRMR

[3] = biological target: T2, dog CD40 (dog, UniProt Q7YRL5 21-194, limits assumed); test: FACS
T2 sequence (looked up): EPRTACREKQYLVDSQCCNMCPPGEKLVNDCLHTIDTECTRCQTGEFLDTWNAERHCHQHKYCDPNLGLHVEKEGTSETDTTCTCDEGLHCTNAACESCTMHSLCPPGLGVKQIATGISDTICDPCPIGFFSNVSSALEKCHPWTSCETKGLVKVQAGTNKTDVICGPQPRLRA

[4] = biological target: CD40 (binding assays of Example 4, Table 4-2); test: antigen binding, format not stated
Chain of CD40 (binding assays of Example 4, Table 4-2) (P25942 21-277): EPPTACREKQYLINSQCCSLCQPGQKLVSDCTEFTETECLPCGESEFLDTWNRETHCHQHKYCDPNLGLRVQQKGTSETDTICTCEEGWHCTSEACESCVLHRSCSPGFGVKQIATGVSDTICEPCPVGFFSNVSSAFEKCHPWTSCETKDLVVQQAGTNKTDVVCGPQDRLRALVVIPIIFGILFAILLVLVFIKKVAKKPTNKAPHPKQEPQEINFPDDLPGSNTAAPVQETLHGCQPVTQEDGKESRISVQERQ

[5] = biological target: T3, soluble form of the extracellular domain of human CD40 (Creative BioMart) (human, UniProt P25942 21-193); test: SPR, Ab captured
T3 construct: Bought
T3 sequence (P25942 21-193 limits assumed): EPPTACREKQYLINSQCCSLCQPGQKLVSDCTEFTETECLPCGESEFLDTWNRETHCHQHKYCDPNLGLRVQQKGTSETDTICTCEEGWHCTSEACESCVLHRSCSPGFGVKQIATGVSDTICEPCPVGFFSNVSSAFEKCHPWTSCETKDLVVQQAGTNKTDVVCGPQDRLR
Protocol: (§1) CD40 binding kinetics was analyzed by surface plasmon resonance assay with a Biacore T200 instrument (Table 1-5). Briefly, a goat anti-mouse Fc antibody (Pierce) or goat anti-human Fc (Pierce) was immobilized on a CM5 sensor chip, followed by capture of the anti-CD40 antibodies on the test surface. Subsequently, the soluble form of the extracellular domain of human CD40 (Creative BioMart) or cynomolgus (cyno) CD40 (Creative BioMart) was injected, and the binding and dissociation were measured.

[6] = biological target: T4, soluble form of the extracellular domain of cynomolgus (cyno) CD40 (Creative BioMart) (cynomolgus, UniProt G7PG38 21-193); test: SPR, Ab captured
T4 construct: extracellular domain; also called Cynomolgus CD40
Protocol: as §1

[7] = biological target: T5, mouse 4-1BB on HEK293 cells (mouse, UniProt P20334 24-256); test: FACS, HEK293 mouse 4-1BB
T5 construct: whole, on cells
T5 sequence (looked up): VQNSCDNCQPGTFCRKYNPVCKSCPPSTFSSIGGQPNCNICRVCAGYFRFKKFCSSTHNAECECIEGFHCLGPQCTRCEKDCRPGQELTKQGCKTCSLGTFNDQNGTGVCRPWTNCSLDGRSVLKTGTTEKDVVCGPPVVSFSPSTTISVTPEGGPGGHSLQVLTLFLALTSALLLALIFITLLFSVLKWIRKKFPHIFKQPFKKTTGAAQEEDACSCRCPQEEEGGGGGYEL
Protocol: To determine species specificity and relative binding affinities of the test antibodies, cell lines were generated to exogenously express 4-1BB on the membrane. HEK293 cells were transfected with a plasmid expressing the human, cynomolgus, or mouse 4-1BB proteins. Stable, high expressing populations were sorted on the MoFlo sorter (Beckman) and maintained in DMEM, 10% fetal bovine serum, containing 500 μg/mL G418. For the assay, cells were dissociated with trypsin, resuspended at 5×10⁶ cells/mL and transferred to the 500 μL polypropylene plate (Nunc) at 50 μL/well (250,000 cells/well). […] Cells were washed twice with 250 μL/PBS (Hyclone) per well. PE-labelled detection antibodies were added at 1:250 dilution of stock, 50 μL/well, and incubated for 20 minutes at room temperature. The following detection antibodies were used: Goat anti-Rat IgG-PE (Southern Biotech), Goat anti-Mouse IgG-PE (Southern Biotech) or Goat anti-Human IgG-PE (Southern Biotech). Cells were washed once and fixed with PBS containing 1% Formaldehyde. Plate was analyzed for fluorescence on the FACSCalibur (Becton Dickinson).

[8] = biological target: T6, MSLN (binding assays of Example 4, Table 4-2) (Homo sapiens (Human), UniProt Q13421 296-598); test: antigen binding, format not stated
T6 construct: also called mesothelin
T6 sequence (Q13421 other isoform, or with tags, fused parts or gaps limits assumed, form in doubt): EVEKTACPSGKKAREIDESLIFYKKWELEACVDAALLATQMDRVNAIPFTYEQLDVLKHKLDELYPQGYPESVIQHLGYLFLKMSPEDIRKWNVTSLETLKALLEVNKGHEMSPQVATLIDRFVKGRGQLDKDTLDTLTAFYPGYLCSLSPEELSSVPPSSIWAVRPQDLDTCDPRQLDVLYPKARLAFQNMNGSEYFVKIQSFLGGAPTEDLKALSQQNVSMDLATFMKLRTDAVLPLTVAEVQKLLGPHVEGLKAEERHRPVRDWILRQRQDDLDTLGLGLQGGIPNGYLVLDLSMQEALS

[9] = biological target: T7, mesothelin on cells (endogenous on SN12C, OVCAR3, SW1990); HEK293 cells expressing cell-surface human … (human, UniProt Q13421 296-598); test: FACS, OVCAR3 (CA125+)
T7 construct: whole, on cells; also called cell-surface MSLN
T7 sequence (Q13421 other isoform, or with tags, fused parts or gaps limits assumed): as the sequence (Q13421 other isoform, or with tags, fused parts or gaps limits assumed, form in doubt) above
Protocol: (§2) The binding of anti-mesothelin affinity matured variants was measured by FACS on the ovarian cancer cell line OVCAR3, the pancreatic cancer cell line SW1990, and the renal cancer cell line SN12C. Both OVCAR3 and SW1990 express CA125, but CA125 expression on SN12C cells was not detected.

[10] = biological target: T7, mesothelin on cells (endogenous on …); test: FACS, SN12C (CA125-)
Protocol: as §2

[11] = biological target: T8, cynomolgus mesothelin (cynomolgus); test: SPR
T8 construct: also called cynoMSLN; Cyno MSLN

[12] = biological target: T9, human mesothelin (human, UniProt Q13421 296-580, limits assumed); test: SPR
T9 construct: also called Human MSLN
T9 sequence (Q13421 other isoform, or with tags, fused parts or gaps limits assumed): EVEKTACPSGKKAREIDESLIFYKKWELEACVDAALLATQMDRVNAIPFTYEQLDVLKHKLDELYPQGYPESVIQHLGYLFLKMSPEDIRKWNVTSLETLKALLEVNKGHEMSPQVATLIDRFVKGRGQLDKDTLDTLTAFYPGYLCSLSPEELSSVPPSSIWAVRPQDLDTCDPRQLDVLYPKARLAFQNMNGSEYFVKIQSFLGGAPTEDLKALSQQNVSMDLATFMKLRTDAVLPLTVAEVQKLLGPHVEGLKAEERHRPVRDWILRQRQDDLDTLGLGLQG

[13] = biological target: T10, human 4-1BB (human, UniProt Q07011 24-186); test: SPR (Biacore)
T10 construct: SPR (Biacore) analyte; also called hu4-1BB

Chain of human CD40 on cells (HEK293 stable transfectants, HEK-Blue CD40 cells, human B cells, monocytic cells, … (P25942 21-277 limits assumed): as the sequence (P25942 21-277) above

NF-κB activation EC50, HEK293 CD40 NFκB reporter cells [1]: 1.13 µg/mL
binding result [2]: no binding
binding result [3]: no binding
EC50 [4]: 0.2 µg/mL
Kd [5]: 15 nM
koff [5]: 0.026 s⁻¹
kon [5]: 1.7e+06 M⁻¹ s⁻¹
Kd [6]: 13 nM
koff [6]: 0.024 s⁻¹
kon [6]: 1.8e+06 M⁻¹ s⁻¹
B1: huAb9-5 (antibody, human IgG1, kappa)
heavy: not shown
light: DAVMTQTPLSLSVTPGQPASISCRSSQSLENTNGNTFLNWYLQKPGQSPQLLIYRVSNRFSGVPDRFSGSGSGTDFTLKISRVEAEDVGVYYCLQVTHVPFTFGQGTKLEIKRTVAAPSVFIFPPSDEQLKSGTASVVCLLNNFYPREAKVQWKVDNALQSGNSQESVTEQDSKDSTYSLSSTLTLSKADYEKHKVYACEVTHQGLSSPVTKSFNRGEC
notes: human IgG1, kappa

NF-κB activation EC50, HEK293 CD40 NFκB reporter cells [1]: 0.14 µg/mL
binding result [2]: no binding
binding result [3]: no binding
EC50 [4]: 0.4 µg/mL
Kd [5]: 3 nM
koff [5]: 0.0023 s⁻¹
kon [5]: 770000 M⁻¹ s⁻¹
Kd [6]: 7.1 nM
koff [6]: 0.0071 s⁻¹
kon [6]: 1e+06 M⁻¹ s⁻¹
B8: huAb8-1 (antibody, human IgG1, V domains shown)
VH: EVQLVQSGAEVKKPGSSVKVSCKASGYTFTDYYINWVRQAPGQGLEWIGWIFPGSGSVYCNEQFKGRATLTVDRSTSTAYMELSSLRSEDTAVYFCASSLGKFAYWGQGTLVTVSS
VL: DIQMTQSPSSLSASVGDRVTITCKASQSVVTAVAWYQQKPGKSPKLLIYSASNRYTGVPSRFSGSGSGTDFTLTISSLQPEDFATYFCQQYSSYPYTFGGGTKVEIK
notes: human IgG1, kappa

EC50 [7]: 0.69 nM
B9: hu106-1 mIgG1 (antibody, V domains shown)
VH: EVQLVQSGAEVKKPGSSVKVSCKASGYTFTSYYIYWVRQAPGQGLEWIGNIWPGNGGTFYGEKFMGRATFTADTSTSTAYMELSSLRSEDTAVYYCARRPDYSGDDYFDYWGQGTLVTVSS
VL: NVMLTQPHSVSESPGKTVTISCKLNSGNIGSYYVHWYQQRPGSSPTTMIYRDDKRPDGVPDRFSGSIDSSSNSASLTISGLKTEDEADYYCHSYDSTITPVFGGGTKLTVL
notes: also called hu106-1 with the muIgG1 constant region

EC50 [7]: 0.95 nM
B10: hu106-1 T252M mIgG1 (antibody, V domains shown)
VH: B9 VH
VL: B9 VL
notes: also called hu106-1 mIgG1 T252M

Kd [13]: 3.1 nM
B11: TABBY10-mIgG1 (antibody, V domains shown)
VH: QIQLVQSGPELKKPGETVKISCKASGYTFTTYGMSWVKQAPGKGLKWMGWINTYSGVPTYADDFKGRFAFSLETSASTAYLQINNLKNEDTATYFCARGNDGNYYGWFAHWGQGTLVTVSA
VL: DIQMTQSPSSLSASLGGKVTITCKASQDIHNYISWYQHKPGKGPRLVIHYTSTLQPGIPSRFSGSGSGRDYSFSISNLEPEDIATYYCLQYDNLYTFGGGTKLEIK
notes: mouse IgG1

Second part, the binder before the results:

B2: Hu106mPSMA-3 (bispecific antibody)
chain: EVQLVQSGAEVKKPGSSVKVSCKASGYTFTSYYIYWVRQAPGQGLEWIGNIWPGNGGTFYGEKFMGRATFTADTSTSTAYMELSSLRSEDTAVYYCARRPDYSGDDYFDYWGQGTLVTVSSGGGGSGGGGSGGGGSGGGGSGGGGSGGGGSNVMLTQPHSVSESPGKTVTISCKLNSGNIGSYYVHWYQQRPGSSPTTMIYRDDKRPDGVPDRFSGSIDSSSNSASLTISGLKTEDEADYYCHSYDSTITPVFGGGTKLTVLGQVPRDSGCKPCICTVPEVSSVFIFPPKPKDVLMITLTPKVTCVVVDISKDDPEVQFSWFVDDVEVHTAQTQPREEQFNSTFRSVSELPIMHQDWLNGKEFKCRVNSAAFPAPIEKTISKTKGRPKAPQVYTIPPPKEQMAKDKVSLTCMITDFFPEDITVEWQWNGQPAENYKNTQPIMDTDGSYFVYSKLNVQKSNWEAGNTFTCSVLHEGLHNHHTEKSLSHSPGKGGGGSGGGSGGGSGGGGSEVKLVESEGGLVQPGSSMKLSCTASGFTFSDYYMAWVRQVPEKGLEWVANINYDGTTTYYLDSLKSRFIISRDNSKNILYLQMSSLKSEDTATYYCARVLDGYYGYFDYWGQGTTLSVSSGGGGSGGGGSGGGGSGGGGSGGGGSGGGGSQIVLTQSPAIMSASPGEKVTISCSASSSVSYMYWYQQKPGSSPKPWIYRTYNLASGVPARFSGSGSGTSYSLTISSMEAEDAATYYCQQSHTYPPTFGGGTKLEIKR
notes: contains T252M
EC50 [7]: 1.1 nM

B3: Hu106mPSMA-4 (bispecific antibody)
chain: B2 chain with N341A
notes: contains T252M and N297A
EC50 [7]: 1 nM

B4: B39 (bispecific antibody, IgG2)
chain: EVQLQESGPGLVKPSETLSLTCTVSGYSITSNYYWNWIRQPPGKGLEWMGYIRYDGSNNYNPSLKNRVTISRDTSKNQFSLKLSSVTAADTAVYYCARLDYWGQGTTVTVSSDLSGGGGSGGGGSGGGGSGGGGSTGDAVMTQTPLSLSVTPGQPASISCRSSQSLENTNGNTFLNWYLQKPGQSPQLLIYRVSNRFSGVPDRFSGSGSGTDFTLKISRVEAEDVGVYYCLQVTHVPFTFGQGTKLEIKRVERKSSVECPPCPAPPVAGPSVFLFPPKPKDTLMISRTPEVTCVVVDVSHEDPEVQFNWYVDGVEVHNAKTKPREEQFNSTFRVVSVLTVVHQDWLNGKEYKCKVSNKGLPAPIEKTISKTKGQPREPQVYTLPPSREEMTKNQVSLTCLVKGFYPSDIAVEWESNGQPENNYKTTPPMLDSDGSFFLYSKLTVDKSRWQQGNVFSCSVMHEALHNHYTQKSLSLSPGKVDGASSPVNVSSPSVQDIEVQLVQSGAEVKKPGASVKVSCKASGDTFKRYYVHWVRQAPGQGLEWMGIINPSGVSTTYAQKFQGRVTMTRDTSTSTVYMELSSLRSEDTAVYYCAEVRGSGFNYFGMDVWGQGTLVTVSSDLSGGGGSGGGGSGGGGSGGGGSTGSYELTQPPSVSVSPGQTASITCSGDKLGDKYASWYQQKPGQSPVLVIYQDNRRPSGIPERFSGSNSGNTATLTISGTQAMDEADYYCQAWDSDTYVFGTGTKVTVLGQ
notes: scFv-Fc-scFv, huIgG2
EC50 [4]: 0.5 µg/mL
EC50 [8]: 7.4 µg/mL

B5: HuAM15 (antibody, V domains shown)
VH: EVQLVQSGAEVKKPGASVKVSCKASGDTFKRYYVHWVRQAPGQGLEWMGIINPSGVSTTYAQKFQGRVTMTRDTSTSTVYMELSSLRSEDTAVYYCAEVRGSGFNYFGMDVWGQGTLVTVSS
VL: SYELTQPPSVSVSPGQTASITCSGDKLGDKYASWYQQKPGQSPVLVIYQDNRRPSGIPERFSGSNSGNTATLTISGTQAMDEADYYCQAWDSDTYVFGTGTKVTVL
notes: fully human antibody
EC50 [9]: 0.7 µg/mL
Maximum binding (MFI) [9]: 3550 MFI
EC50 [8]: 0.9 µg/mL
EC50 [10]: 0.07 µg/mL
Maximum binding (MFI) [10]: 9390 MFI
Kd [11]: 4.5 nM
koff [11]: 0.00018 s⁻¹
kon [11]: 40000 M⁻¹ s⁻¹
Kd [12]: 0.31 nM
koff [12]: 1.3e-05 s⁻¹
kon [12]: 44000 M⁻¹ s⁻¹

B6: TABBY5-mIgG2b (antibody, V domains shown)
VH: EVQLQQSGAELVRPGASVKLSCTASGFNIKDYYMHWVKQRPEQGLEWIGRIDPEDGDTEYVPKFQGKATMTADTSSNTAYLQLSSLTSEDTAVYYCTPYSNYVYWYFDVWGTGTTVTVSS
VL: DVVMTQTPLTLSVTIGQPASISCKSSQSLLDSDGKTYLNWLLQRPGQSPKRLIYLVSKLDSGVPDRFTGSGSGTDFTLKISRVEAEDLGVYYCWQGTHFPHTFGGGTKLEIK
notes: mouse IgG2b
Kd [13]: 0.3 nM

B7: TABBY6-mIgG1 (antibody, V domains shown)
VH: B6 VH with V61A, S85T
VL: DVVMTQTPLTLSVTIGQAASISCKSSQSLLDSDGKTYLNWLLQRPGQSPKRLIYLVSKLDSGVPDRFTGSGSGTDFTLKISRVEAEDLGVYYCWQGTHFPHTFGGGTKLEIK
notes: mouse IgG1
Kd [13]: 1.9 nM

— patent US20180194862A1 (AbbVie / Abbott, published 2018)
